For test [1], the target named is Mouse CD40 on cells (A20 lymphoma cells, EL4-mCD40 cells, peritoneal macrophages, splenic dendritic cells) (mouse) (UniProt P27512). In words: flow cytometry on A20 cells, anti-human Ck-APC (axis hCk); negative control. (In general: Flow cytometry measures light scatter and fluorescence of single cells or particles in a stream.)
Test [2] has as its target T1, Human CD40 on cells (Raji, Daudi, IM-9) (human, UniProt P25942 21-277).
T1 construct: whole, on cells; also called cell surface CD40; hCD40
In words: flow cytometry on Raji cells, 1 ug/1x10^5 cells, anti-human Ck-APC (axis hCk); negative control.

For test [3], the target named is T2, BSA (bovine serum albumin) (bovine, UniProt P02769 25-607).
T2 construct: Control antigen in the phage ELISA
T2 sequence (P02769 25-607 limits assumed): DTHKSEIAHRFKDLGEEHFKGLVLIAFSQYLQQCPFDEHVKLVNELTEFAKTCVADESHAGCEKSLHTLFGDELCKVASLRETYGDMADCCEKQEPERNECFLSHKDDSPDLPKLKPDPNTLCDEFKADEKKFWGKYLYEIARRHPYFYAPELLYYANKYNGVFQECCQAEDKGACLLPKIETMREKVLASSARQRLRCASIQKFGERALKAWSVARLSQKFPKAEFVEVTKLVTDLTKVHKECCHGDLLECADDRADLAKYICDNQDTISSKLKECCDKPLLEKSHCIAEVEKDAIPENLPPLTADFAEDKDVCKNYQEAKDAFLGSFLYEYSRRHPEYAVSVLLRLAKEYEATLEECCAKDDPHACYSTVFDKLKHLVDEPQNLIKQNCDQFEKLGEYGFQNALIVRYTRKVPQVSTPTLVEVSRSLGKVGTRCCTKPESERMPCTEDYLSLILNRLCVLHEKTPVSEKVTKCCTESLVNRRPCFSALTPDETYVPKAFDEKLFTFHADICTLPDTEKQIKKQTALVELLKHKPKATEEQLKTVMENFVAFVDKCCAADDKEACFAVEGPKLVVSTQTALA
In words: serial dilution ELISA on wells with blocking only (the legend calls this the binding to BSA), OD at 405 nm. As for the experimental part:
(§1) FIGS. 20A-C The individual specific binders are screened by ELISA and 23 different scFv clones were further characterized by sequencing. FIG. 20A: Reactivity of the selected scFv clones to human CS1 was assayed by measuring absorbance at 405 nm. The individual scFv clones were reactive to human CS1-His (▪) and human CS1-Fc ( ), but not hFc ( ) or BSA (□).Binding activity determination of selected clones specific to human CS1. The three clones selected from the phage ELISA were verified in a serial dilution ELISA after expression and purification as a form of scFv-Cκ-His. The y-axis of the graphs depicts the signal for serial dilutions of the antibodies, and the x-axis depicts the antibody concentration in the wells of the dilution series. The binding to human CS1-Fc is indicated as red, while the binding to BSA is indicated as blue. […] FIG. 20B: Binding activity of anti-human CS1 cFv-Cκ-His on J558/CS1 or J558 cells measured using flow cytometry. […] Binding of scFv adapters were detected by adding APC conjugated anti-human Cκ antibodies or APC conjugated anti-His tag secondary antibodies. FIG. 20C: Binding activity of anti-human CS1 scFv-Cκ-His on MM1.s cells measured using flow cytometry. Binding of the antibodies were detected by adding either an APC conjugated anti-human Cκ antibodies, or an APC conjugated anti-His tag secondary antibodies, respectively. […]
A general note: An ELISA detects its analyte on a solid surface through an enzyme-linked reagent.

Test [4] addresses T3, Human CS1-Fc fusion protein (CS1 ectodomain S23~M226 with C-terminal human IgG1 Fc) (human, UniProt Q9NQ25 23-226).
T3 construct: range 23-226; Made in-house in Expi293 cells; also called recombinant CS1-Fc fusion protein; not shown: C-terminal human IgG1 Fc
T3 sequence (looked up): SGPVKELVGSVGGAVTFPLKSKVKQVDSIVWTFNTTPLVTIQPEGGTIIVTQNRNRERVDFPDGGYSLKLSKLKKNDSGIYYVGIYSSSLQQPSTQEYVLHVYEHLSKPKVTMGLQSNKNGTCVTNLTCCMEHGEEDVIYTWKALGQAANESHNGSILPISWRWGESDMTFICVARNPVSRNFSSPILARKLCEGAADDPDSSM
In words: serial dilution ELISA of purified scFv-Cκ-His on coated hCS1-Fc, OD at 405 nm, detection with anti-human Cκ-HRP. On the procedure: as §1

Test [5] addresses T4, BSA-conjugated c-Myc peptide (also: conjugated to BSA by thiol-maleimide reaction, thiol residue not given here).
T4 construct: also called the antigen
T4 peptide: EQKLISEEDL
In words: indirect ELISA after bio-panning against BSA-conjugated c-Myc peptide.

For test [6], the target named is T5, Recombinant human CD40-Fc (1493-CDB, R&D systems) (human, UniProt P25942 21-193).
T5 construct: Bought protein; also called human CD40 recombinant proteins
T5 sequence (P25942 21-193 limits assumed): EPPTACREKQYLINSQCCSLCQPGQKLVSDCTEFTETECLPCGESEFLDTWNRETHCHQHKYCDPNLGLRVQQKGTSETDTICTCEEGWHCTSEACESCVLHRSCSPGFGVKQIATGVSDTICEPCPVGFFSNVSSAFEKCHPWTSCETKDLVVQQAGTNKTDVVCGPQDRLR
In words: ELISA, human CD40-Fc coated at 2.5 ug/ml, serial dilutions 0.0001 to 1000 nM, anti-human Ck-HRP, absorbance 450 nm. On the procedure:
FIG. 13A: Recombinant human CD40-Fc (2.5 μg/ml) was coated in ELISA plate and the serial diluents of 2B1-Ck, 2E1-Ck and irrelevant scFv antibody-Ck were loaded. The bound scFv-Cκs were detected by a secondary anti-human Cκ-HRP followed by chromogenic reaction with TMB substrate. The absorbance was measured at 450 nm. […] FIG. 13B: Raji, a CD40-expressing human B lymphoma cell line, was stained with 2B1-Ck, 2E1-Ck or the irrelevant scFv-Cκ (1 μg/1×10⁵ cells), and then stained with secondary anti-human Ck-APC. The binding intensity of the scFv-Cκs were analyzed by flow cytometry. The numbers are mean fluorescence intensities (MFIs) of the binding.
(§2) White leghorn chickens were immunized four times with recombinant mouse CD40 (50324-M08H, Sino Biological, China) or human CD40 (10774-H08H, Sino Biological) protein. Total RNA from the bursa of Fabricius, spleen, and bone marrow was isolated using TRIzol reagent (Invitrogen, USA), and cDNA was synthesized using a SuperScript III first-strand cDNA synthesis kit with oligo (dT) primers (Invitrogen) according to the manufacturer's instructions. The scFv phage-display libraries were constructed from the cDNAs as described previously⁵¹. […] The binding of the scFv-Cκs was measured with the secondary antibody (anti-human Cκ-HRP; AP502P, Sigma-Aldrich, USA).

The target in test [7] is T6, Recombinant mouse CD40-Fc (1215-CD, R&D systems) (mouse, UniProt P27512 24-193, limits assumed).
T6 construct: Bought protein; also called recombinant CD40 protein
T6 sequence (looked up): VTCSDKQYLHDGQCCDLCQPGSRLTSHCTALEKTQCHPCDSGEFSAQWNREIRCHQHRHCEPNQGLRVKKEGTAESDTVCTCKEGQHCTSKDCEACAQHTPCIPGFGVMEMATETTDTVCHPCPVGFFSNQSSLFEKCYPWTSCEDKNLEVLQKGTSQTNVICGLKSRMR
In words: ELISA, mouse CD40-Fc coated at 2.5 ug/ml, serial dilutions 0.0001 to 1000 nM, anti-human Ck-HRP, absorbance 450 nm. As for the experimental part: FIG. 8A: Recombinant mouse CD40-Fc (2.5 μg/ml) was coated in ELISA plate and the serial diluents of C1C02-Cκ or the irrelevant scFv-Cκ were loaded. The bound scFv-Cκs were detected by a secondary anti-human Cκ-HRP followed by a chromogenic reaction with TMB substrate. The absorbance was measured at 450 nm. […] FIG. 8B: A20, a CD40-expressing mouse B lymphoma cell line, was stained with C1C02-Cκ (1 μg/1×10⁵ cells) or the irrelevant scFv-Cκ and then stained with a secondary anti-human Cκ-APC. The binding intensity of the scFv-Cκs was analyzed by flow cytometry. The numbers are the mean fluorescence intensities (MFIs) of the binding.
as §2

No end group written: not given here.

The term EC50 denotes the concentration giving half of the maximal effect.

T1 sequence (P25942 21-277): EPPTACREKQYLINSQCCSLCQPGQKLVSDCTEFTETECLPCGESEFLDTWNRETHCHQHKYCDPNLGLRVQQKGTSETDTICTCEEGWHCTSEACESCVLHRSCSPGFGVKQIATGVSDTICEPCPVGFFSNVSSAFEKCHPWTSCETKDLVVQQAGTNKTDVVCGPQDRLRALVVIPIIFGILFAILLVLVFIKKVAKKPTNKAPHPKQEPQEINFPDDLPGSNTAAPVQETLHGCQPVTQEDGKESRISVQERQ
Mouse CD40 on cells (A20 lymphoma cells, EL4-mCD40 cells, peritoneal macrophages, splenic dendritic cells) (mouse), sequence (P27512 20-289): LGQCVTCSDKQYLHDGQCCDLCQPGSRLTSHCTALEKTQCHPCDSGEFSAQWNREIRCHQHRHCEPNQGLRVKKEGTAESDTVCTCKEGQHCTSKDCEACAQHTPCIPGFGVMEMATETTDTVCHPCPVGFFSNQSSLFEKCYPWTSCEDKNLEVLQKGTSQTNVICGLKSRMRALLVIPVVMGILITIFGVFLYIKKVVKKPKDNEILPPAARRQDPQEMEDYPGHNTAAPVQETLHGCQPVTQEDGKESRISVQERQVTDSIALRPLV

Consider Irrelevant Ab-Ck (scFv), for which the MFI in test [1] stood at 24.6; in test [2], 3.78.

B1: hCS1(#57)-Ck-His (anti-human CS1 scFv-Cκ-(G4S)2-6×His, clone #57) (scFv)
scFv: QAALTQPSSVSANLGETVKITCSGSSGNNYGWYQQKSPGSAPVTVIYYNDNRPSDIPSRFSGSKSGSTHTLTITGVQADDEAVYFCGSGDSSSNPGIFGAGTTLTVLGQSSRSSGGGGSSGGGGSAVTLDESGGGLQTPGGALSLVCKASGFTFSSHGMAWVRQAPGKGLEWVAGIDDSGSSTGYGSAVKGRATISRDNGQSTVRLQLNNLRAEDTGIYYCAKAYDTGCGWAGYNVYDCSADQIDAWGHGTEVIVSSTSGQAGQRTVAAPSVFIFPPSDEQLKSGTASVVCLLNNFYPREAKVQWKVDNALQSGNSQESVTEQDSKDSTYSLSSTLTLSKADYEKHKVYACEVTHQGLSSPVTKSFNRGESGGGGSGGGGSHHHHHH
notes: also called #57 clone; His tagged CS1 adaptor
B1: in test [3], the binding result was “no binding”. Moreover, the EC50 in test [4] is 9.3 nM.

B2: hCS1(#87)-Ck-His (anti-human CS1 scFv-Cκ-(G4S)2-6×His, clone #87) (scFv)
scFv: QAALTQPSSVSANPGETVKITCSGGGSYYGWYQQKSPGSAPVTVIYGNDKRPSNIPSRFSGSKSGSTATLTITGVQVEDEAVYFCGGWDSTDAGTFGAGTTLTVLGQSSRSSGGGGSSGGGGSAVTLDESGGGLQTPGGGLSLVCKASGFTFSSHGMAWVRQAPGKGLEWVAGIDDSGSSTGYGSAVKGRATISRDNGQSTVRLQLNNLRAEDTGIYYCAKAYDTGCGWAGYNVYDCSADQIDAWGHGTEVIVSSTSGQAGQRTVAAPSVFIFPPSDEQLKSGTASVVCLLNNFYPREAKVQWKVDNALQSGNSQESVTEQDSKDSTYSLSSTLTLSKADYEKHKVYACEVTHQGLSSPVTKSFNRGESGGGGSGGGGSHHHHHH
notes: also called #87 clone; His tagged CS1 adaptor
Turning to B2, the binding result in test [3] was “no binding”. The same molecule registered a 50% effective concentration (EC50) in test [4] of 2.9 nM.

B3: Anti-Myc scFv clone 8A9 (scFv)
scFv: QAALTQPSSVSANPGETVEITCSGGSSGYYGWHQQKSPGSAPVTVIYENTNRPSDIPSRFSGSKSGSTATLTITGVQADDEAVYFCGSYDSSSASGIFGAGTTLTVLGQSSRSSGGGGSSGGGGSAVTLDESGGGLQTPGGGLSLVCKASGFTFSSYDMAWVRQEPGKGLEYVASISRSGRYTRYGPAVKGRATISRDNGQSTVRLQLNNLRAEDTATYFCTRGGAVSIDTWGHGTEVIVSS
notes: Selected from a chicken scFv phage library by indirect ELISA
Consider B3, for which, in test [5], the binding result is recorded as “binds”.

B4: 2B1-Cκ (anti-human CD40 scFv clone 2B1 fused with human Cκ) (scFv)
scFv: QAALTQPSSVSANPGETVKITCSGGDSYAGSYYYGWFQQKAPGSAPVTVIYYNDKRPSDIPSRFSGSTSGSTSTLTITGVQAEDEAVYYCGSIDTSSGTGIFGAGTTLTVLGQSSRSSGGGGSSGGGGSAVTLDESGGGLQTPGGALSLVCKGSGFTFSSYQMFWVRQAPGKGLEYVAEISGSGLSTWYAPAVKGRATISRDNGQSTVRLQLNNLRAEDTGTYYCAKAAGSCGVGTCAGGIVDGIDAWGHGTEVIVSSTSGQAGQRTVAAPSVFIFPPSDEQLKSGTASVVCLLNNFYPREAKVQWKVDNALQSGNSQESVTEQDSKDSTYSLSSTLTLSKADYEKHKVYACEVTHQGLSSPVTKSFNRGES
notes: also called 2B1-Ck; free 2B1
On to B4, for which the EC50 in test [6] is 0.365 nM.

B5: 2E1-Cκ (anti-human CD40 scFv clone 2E1 fused with human Cκ) (scFv)
scFv: QAALTQPSSVSANPGETVKITCSGSSSSYYGWYQQKAPGSAPVTLIYANDKRPSDIPSRFSGSKSGSTHTLTITGVQADDEAVYFCGSADSTDSGFGAGTTLTVLGQSSRSSGGGGSSGGGGSAVTLDESGGGLQTPGGALSLVCKASGFSFSSYSMHWVRQAPGKGLEFVAAISSDGSRYTHYGPAVKGRATISRDNGQSTVRLQLNNLRPEDTGTYYCAKTSNTWTWNTGWIDAWGHGTEVIVSSTSGQAGQRTVAAPSVFIFPPSDEQLKSGTASVVCLLNNFYPREAKVQWKVDNALQSGNSQESVTEQDSKDSTYSLSSTLTLSKADYEKHKVYACEVTHQGLSSPVTKSFNRGES
notes: also called 2E1-Ck
For the molecule B5, in test [6], the EC50 was determined as 1.06 nM.

B6: C1C02-Cκ (anti-mouse CD40 scFv clone C1C02 fused with human immunoglobulin kappa light chain constant region) (scFv)
scFv: QAALTQPSSVSANPGETVKITCSGGSSNYGWYQQKSPGSAPATVIYDNTNRPSDIPSRFSGALSGSTATLTITGVQVEDEAVYYCGGYDSGTYAGIFGAGTTLTVLGQSSRSSGGGGSSGGGGSAVTLDESGGGLQTPGGTLSLACKGSGFTFSSVNMQWVRQAPGKGLEWVAGISSDGSYTAYGAAVKGRATISRDNGQSTVRLQLNNLRAEDTAIYYCAKIAGGYYWDAAYSIDMWGHGTEVIVSSTSGQAGQRTVAAPSVFIFPPSDEQLKSGTASVVCLLNNFYPREAKVQWKVDNALQSGNSQESVTEQDSKDSTYSLSSTLTLSKADYEKHKVYACEVTHQGLSSPVTKSFNRGES
notes: also called C1C02 scFv; anti-mouse CD40 antibody (clone C1C02)
Consider B6, for which the EC50 in test [7] is 1.28 nM.
